Assay results from patent US20220153790A1 (TECHNISCHE UNIVERSIT T M NCHEN, published 2022).
Where a chain is given by its changes, count along the chain named. Values belong to the binder of their own block, whether it stands above or below them.

Key:
[1] = target: T1, unglycosylated, monobiotinylated extracellular domain of human CD98hc produced in E. coli (human, UniProt P08195 111-529, single biotin on the N-terminal biotin acceptor peptide (BAP)); assay: not given
T1 construct: also called hCD98hcED; CD98hcED; not shown: N-terminal biotin acceptor peptide (BAP) from pASK-IBA5(+)-BAP-hCD98hcED
T1 sequence: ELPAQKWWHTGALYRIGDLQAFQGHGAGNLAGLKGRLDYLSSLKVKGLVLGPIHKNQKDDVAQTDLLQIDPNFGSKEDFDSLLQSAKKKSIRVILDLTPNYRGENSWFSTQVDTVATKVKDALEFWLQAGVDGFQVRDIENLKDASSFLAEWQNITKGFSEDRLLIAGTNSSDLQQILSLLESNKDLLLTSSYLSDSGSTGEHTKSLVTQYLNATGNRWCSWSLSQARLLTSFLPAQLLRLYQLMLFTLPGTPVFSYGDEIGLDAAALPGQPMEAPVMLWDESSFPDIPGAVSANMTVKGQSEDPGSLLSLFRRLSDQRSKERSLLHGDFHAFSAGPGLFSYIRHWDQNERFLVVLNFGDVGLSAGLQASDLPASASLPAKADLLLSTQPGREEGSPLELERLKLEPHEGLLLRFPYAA

[2] = target: T2, fully glycosylated, monobiotinylated extracellular domain of human CD98hc produced in HEK 293E cells (human, UniProt P08195 111-529, N-linked glycosylation at Asn264, 280, 323 and 405 (UniProt P08195-2); single biotin on the N-terminal BAP); assay: flow cytometry, soluble hCD98hcEDg at 10-fold molar excess as competitor of cell binding
T2 construct: also called hCD98hcEDg; CD98hcEDg; not shown: N-terminal His6 tag and biotin acceptor peptide (BAP) from pDSG-BM-His6-BAP-hCD98hcEDg
T2 sequence: T1 sequence
Protocol: Cells growing in suspension (Ramos, Raji and SU-DHL-4) were directly washed with PBS (w/o Ca²⁺ and Mg²⁺). For each measurement, 250,000 viable cells were resuspended in 250 μl FACS buffer (PBS+10% (v/v) FBS) containing 1 μM D11vs-PAS200-Cy5.5 (cf. Supplementary information) and incubated for 1 h at 4° C. Competition experiments were performed by adding a 10-fold molar concentration of either unlabeled D11vs-PAS200 or the soluble glycosylated hCD98hcED. After incubation, cells were washed three times in PBS and finally resuspended in 250 μl FACS buffer. Flow cytofluorometric experiments were performed on a FACSAria Ilu instrument using an excitation wavelength of 650 nm and an emission band-path filter of 780/60 nm.
As expected, no fluorescence staining for any of the tested cell lines was detected when using the Cy5.5-labeled PASylated wtLcn2.

- Kd [1]: ≤ 5 nM
B1: SEQ ID NO 4 (designed binder)
chain: QDSTSDLIPAPPLSKVPLQQNFQDNQFHGKWYVVGRAGNTGLREDKDPGKMFATIYELKEDKSYNVTYVWSGQKKCMYSIVTFVPGSQPGEFTLGNIKSAPGRTSWLVRVVSTNYNQHALVFFKSVTQNREGFAITLYGRTKELTSELKENFIRFSKSLGLPENHIVFPVPIDQCIDG

- binding result [2]: binds
B2: D11vs-PAS200-Cy5.5 (designed binder)
chain: B1 chain with L120M
modifications: Sulfo-Cyanine5.5 coupled by maleimide chemistry to the engineered C-terminal Cys
notes: also called Cy5.5 labeled PASylated D11vs; Cy5.5-labeled D11vs-PAS200; not shown: C-terminal PAS200 polypeptide (200 Pro, Ala and Ser residues) with an engineered Cys at its end
